Data from patent US8936806B2, “Periostin induces proliferation of cardiomyocytes and promotes cardiac regeneration” (Children's Medical Center Corporation, priority 2007, dated 2015).

Key:
[1] = tested on: primary neonatal rat ventricular cardiomyocytes; assay: Cardiomyocyte proliferation by cell count (hemocytometer); assay type: cell-based
Experimental: To determine cardiomyocyte proliferation, primary neonatal rat ventricular cardiomyocytes were quantified by counting with a hemocytometer after 3 days and 6 days of stimulation. To determine cardiomyocyte survival, primary neonatal rat ventricular cardiomyocytes were pre-treated with 500 ng/mL periostin or buffer for 30 min and then exposed to 0.5 μM doxycycline or 100 ng/mL TNFα for 24 hr and quantified by counting. Corresponding samples were stained with an antibody directed against tropomyosin as a cardiomyocyte marker to control for the percentage of differentiated cardiomyocytes. Apoptotic cardiomyocyte nuclei were determined after 24 hr with the In situ Cell Death Detection Kit (Roche, Indianapolis, Ind.) in combination with staining for troponin I.

[2] = tested on: Adult male Sprague-Dawley rats; assay: Rat model of myocardial infarction: echocardiography and catheterization; assay type: in vivo; conditions: for Maximum left ventricular elastance / Maximum rate of left ventricular pressure rise / Preload-recruitable stroke work / Slope of end-systolic pressure-volume relationship: catheterization, 12 weeks
Experimental: Adult male Sprague-Dawley rats (300 gm, Charles River Laboratories) underwent experimental myocardial infarction as described (del Monte, F. et al. Abrogation of ventricular arrhythmias in a model of ischemia and reperfusion by targeting myocardial calcium cycling. Proc Natl Acad Sci USA 101, 5622-7 (2004)). The survival rate was 67%. Gelfoam loaded with 100 μg of recombinant periostin or with buffer were applied over the myocardial infarction at the time of surgery. Rats received 3 intraperitoneal BrdU injections (70 μmol/kg body weight) with a half-life of 2 hr every 48 hr over a period of 7 days. Echocardiography and hemodynamic catheterization were performed as described (Prunier, F. et al. Am J Physiol Heart Circ Physiol (2006)).

[3] = 12 weeks after MI, listed as Periostin

B1: periostin: Recombinant periostin, purified from HEK293 cells expressing the full-length human cDNA; secreted protein of 834 amino acids (Seq ID. No. 1) (protein, listed as Homo sapiens)
chain: MIPFLPMFSLLLLLIVNPINANNHYDKILAHSRIRGRDQGPNVCALQQILGTKKKYFSTCKNWYKKSICGQKTTVLYECCPGYMRMEGMKGCPAVLPIDHVYGTLGIVGATTTQRYSDASKLREEIEGKGSFTYFAPSNEAWDNLDSDIRRGLESNVNVELLNALHSHMINKRMLTKDLKNGMIIPSMYNNLGLFINHYPNGVVTVNCARIIHGNQIATNGVVHVIDRVLTQIGTSIQDFIEAEDDLSSFRAAAITSDILEALGRDGHFTLFAPTNEAFEKLPRGVLERFMGDKVASEALMKYHILNTLQCSESIMGGAVFETLEGNTIEIGCDGDSITVNGIKMVNKKDIVTNNGVIHLIDQVLIPDSAKQVIELAGKQQTTFTDLVAQLGLASALRPDGEYTLLAPVNNAFSDDTLSMVQRLLKLILQNHILKVKVGLNELYNGQILETIGGKQLRVFVYRTAVCIENSCMEKGSKQGRNGAIHIFREIIKPAEKSLHEKLKQDKRFSTFLSLLEAADLKELLTQPGDWTLFVPTNDAFKGMTSEEKEILIRDKNALQNIILYHLTPGVFIGKGFEPGVTNILKTTQGSKIFLKEVNDTLLVNELKSKESDIMTTNGVIHVVDKLLYPADTPVGNDQLLEILNKLIKYIQIKFVRGSTFKEIPVTVYTTKIITKVVEPKIKVIEGSLQPIIKTEGPTLTKVKIEGEPEFRLIKEGETITEVIHGEPIIKKYTKIIDGVPVEITEKETREERIITGPEIKYTRISTGGGETEETLKKLLQEEVTKVTKFIEGGDGHLFEDEEIKRLLQGDTPVRKLQANKKVQGSRRRLREGRSQ
- increase of cardiomyocyte proliferation ([1]; after 3 days): 3.6 fold
- increase of cardiomyocyte proliferation ([1]; after 6 days): 4.2 fold
- Ejection fraction ([2]; 1 week after MI): 53%
- End-diastolic dimension ([2]; 1 week after MI): 8.1 ± 0.4 mm
- End-systolic dimension ([2]; 1 week after MI): 6.1 ± 0.4 mm
- Shortening fraction ([2]; 1 week after MI, periostin Gelfoam 100 μg): 25%
- Shortening fraction ([2]; 1 week after MI, periostin Gelfoam 100 μg, listed as Periostin): 25.2 ± 2.1%
- Ejection fraction ([2]; 1 week after MI, listed as Periostin): 52.6 ± 2.9%
- Ejection fraction ([2]; 12 weeks after MI): 66%
- End-diastolic dimension ([2]; 12 weeks after MI): significantly smaller
- End-systolic dimension ([2]; 12 weeks after MI): 6 ± 0.5 mm
- Shortening fraction ([2]; 12 weeks after MI): 33%
- Ejection fraction [2, 3]: 65.9 ± 3.8%
- End-diastolic dimension [2, 3]: 8.4 ± 0.2 mm
- Shortening fraction [2, 3]: 33.0 ± 2.6%
- Maximum left ventricular elastance [2]: higher
- Maximum rate of left ventricular pressure rise [2]: higher
- Preload-recruitable stroke work [2]: higher
- Slope of end-systolic pressure-volume relationship [2]: steeper slope
- Maximum left ventricular elastance ([2]; listed as Periostin): 2.5 ± 1
- Maximum rate of left ventricular pressure rise ([2]; listed as Periostin): 4821 ± 513 mm Hg/s
- Preload-recruitable stroke work ([2]; listed as Periostin): 68.6 ± 13.9 mm Hg
- Slope of end-systolic pressure-volume relationship ([2]; listed as Periostin): 1.4 ± 0.2 mm Hg/μL
